Results reported in PMC4669970 (Biochemical pharmacology, 2015).
Read-outs that look alike come from different tables or passages of the source. No end group written: not given here.

Tests used:
human BChE = human BChE (Homo sapiens, UniProt P06276); assay: Inhibition of BChE-catalysed ghrelin hydrolysis by BChE-specific inhibitors; assay type: biochemical; conditions: parallel assays, modest concentrations of inhibitor
[1] = humans; cited from earlier work
[2] = rats; cited from earlier work
[3] = Tissue distribution of [^3H]-ghrelin after i.v. bolus in DFP-pretreated mice; conditions: as E30

Chain of human BChE (P06276 29-602): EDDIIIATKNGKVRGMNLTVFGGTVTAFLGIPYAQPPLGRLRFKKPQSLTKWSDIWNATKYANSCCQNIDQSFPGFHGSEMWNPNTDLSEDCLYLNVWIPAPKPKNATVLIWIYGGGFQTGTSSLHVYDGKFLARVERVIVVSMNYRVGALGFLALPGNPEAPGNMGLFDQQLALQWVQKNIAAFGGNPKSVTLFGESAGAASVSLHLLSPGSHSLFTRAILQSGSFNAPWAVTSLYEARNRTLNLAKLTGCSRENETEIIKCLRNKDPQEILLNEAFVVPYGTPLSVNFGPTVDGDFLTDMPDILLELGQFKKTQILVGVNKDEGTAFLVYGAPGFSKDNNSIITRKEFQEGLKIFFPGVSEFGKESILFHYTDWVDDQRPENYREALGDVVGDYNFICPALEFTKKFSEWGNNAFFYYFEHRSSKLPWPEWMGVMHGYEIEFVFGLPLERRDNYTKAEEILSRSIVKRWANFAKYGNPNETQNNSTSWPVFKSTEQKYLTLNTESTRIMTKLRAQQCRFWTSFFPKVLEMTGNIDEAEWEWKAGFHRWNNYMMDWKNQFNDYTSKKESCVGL

Molecule | effect on BChE ghrelin hydrolysis reactions (human BChE) | circulating half-life [1] | circulating half-life [2] | time of peak concentration in liver [3] | time of peak concentration in pancreas [3] | time of peak concentration in spleen [3]
CCN(CC)C(C)CN1c2ccccc2Sc2ccccc21 (stereo not drawn) [ethopropazine] | stopped those reactions completely | – | – | – | – | –
ghrelin (GSS((3H)n‑octanoyl)FLSPEHQRVQQRKESKKPPAKLQPR; also: tritium label on the octanoyl group (tracer form); UniProt Q9UBU3 24-51, looked up) | – | 8 to 13 min | 8 min | 6 min | 12 min | 12 min
